The DeepSol protein solubility set

test: soluble on expression in E. coli; label from the status in PepcDB or PDB records

Sequence | soluble on expression in E. coli
MPRVKAAQAGRQSSAKRHLAEQFAVGEIITDMAKKEWKVGLPIGQGGFGCIYLADMNSSESVGSDAPCVVKVEPSDNGPLFTELKFYQRAAKPEQIQKWIRTRKLKYLGVPKYWGSGLHDKNGKSYRFMIMDRFGSDLQKIYEANAKRFSRKTVLQLSLRILDILEYIHEHEYVHGDIKASNLLLNYKNPDQVYLVDYGLAYRYCPEGVHKEYKEDPKRCHDGTIEFTSIDAHNGVAPSRRGDLEILGYCMIQWLTGHLPWEDNLKDPKYVRDSKIRYRENIASLMDKCFPEKNKPGEIAKYMETVKLLDYTEKPLYENLRDILLQGLKAIGSKDDGKLDLSVVENGGLKAKTITKKRKKEIEESKEPGVEDTEWSNTQTEEAIQTRSRTRKRVQK | soluble
ALGDTLTITLGGSGGTAKVLRKINQDGYTSEYYLPETSSSFRAKVRHTKESVKPNQVQYERHNVEFTETVYASGSTPEFVRQAYVVIRHKVGDVSATVSDLGEALSFYLNEALYGKLIGWES | soluble
MARKALIEKAKRTPKFKVRAYTRCVRCGRARSVYRFFGLCRICLRELAHKGQLPGVRKASW | soluble
MTKTWEQLSAIQPIGVKMLMNSIAKERISHAYLLEGEKGTGKFATAIQMAKSFLCSQRNRVEPCHVCTNCKRIDSGNHPNLHIVKPDGLSIKKQQIHDLQEEFSKTGLEANKKVYIIEHADRMTANAANALLKFLEEPSSDTTAILLTEQSHQILNTILSRCQVVTFRPLPTESLIRRLQDEGITVSLSTLAAQLTNSFDEALTLCNDEWFAQARALVIKLCEALEKDKASIFFVQEKWGKHFGEKEQLQQGLDMLLLIYKDLLYVQLGEEDRLVFREQKEMFESFSYAQKRIVSALFNILEAKNRINANVNAQLVFEQLVLRLQEG | not soluble
MVISMSDLTFEDVKKEISALDKLSDLEAKKYADTGGYADVIARANNLKTTQLRKFFSAIRSMEKKADSWKSIEADFYLLKPQLANARGRDLIPEGFYEVMKKMMDKVDRGDDDEKIENFRVFVRFLESIVAYHKFYNPRS | not soluble
MSLAKKKEIKLEDALWKSADKLRKNIDAAEYKHIVLGLIFLRYISDSFMQKYEELLKEQDDGADPEDADEYLADNIFFVPEKSRYNYIRDNAKNPKIGKMLDEAMDEIEKHNDTLKGVLPKVYAKDNLDSKCLGELIDLIGNIAFDTGKSTDVLGHVFEYFLGEFALAEGKQGGQFYTPKCVVELLVTMLEPYKGRVFDPCCGSGGMFVQSEEFVKSHQGRLDDISIYGQESNQTTYKLAKMNLAIRKIESSQVIWNNEGSFLNDAHKDLKADFIIANPPFNDSDWSGELLENDGRWKYGVPPASNANYAWIQHFLYHLSPNGGVAGFVLAKGALTSNTTNEAAIRKALIEDDLIDCIVNLPAKLFLNTGIPASLWFIRRQKLPKTVKKTLFIDARDLGTRINRRNKTLNKDDINQIANIYKAWKNGTDYEDIKGFCKSVSIDEIRELSYVLTPGRYVGLADSDDEFDFDTRFNELLAKLKSQIKTEQELSEIILKNLEKIKEGHHHHHH | soluble
MGTYKKEKSRIGREGANEKKPGNLRVKGENFYRNAKDVARVNMYRGGKAKYNAAGELVRAAEFQSSEVPKARIQPDRRWFNNTRVIAQPTLTQFREAMGQKLNDPYQVLLRRNKLPMSLLQENTEIPKVRVLESEPFENTFGPKSQRKRPKISFDSVAELAKESDEKQNAYEEKIEERILANPDESDDVMLAARDAIFSKGQSKRIWNELYKVIDSSDVLIQVLDARDPVGTRCGTVERYLRNEASHKHMILVLNKVDLVPTSVAAAWVKILAKEYPTIAFHASINNSFGKGSLIQILRQFASLHSDKKQISVGLIGFPNAGKSSIINTLRKKKVCNVAPIPGETKVWQYVALMKRIFLIDCPGIVPPSSNDSDAELLLKGVVRVENVSNPEAYIPTVLSRCKVKHLERTYEISGWNDSTEFLAKLAKKGGRLLKGGEPDEASVAKMVLNDFMRGKIPWFIGPKGLSSSNDEINSSQKVATQQTEGSDQDGEEAEEEWHGISDDGKADESESTKPVAEGSASESTDESAVDDNKNRS | not soluble
MGSDKIHHHHHHLTNLLVIGATGNIGQPLIRDLQDDPDVHLFAGVHNSEHAKQALNGLKVQVRRFDFLDPATFEQALADIDKVFFVRPPQLAKPKEDMYPFLDALVARHVKQVVFVSLLGVAHNPMTPHHQIEKRIVELGLPYTFIRPSFFMQNLNTTHQADIVGHRDLFVPAGHARTSFIDTRDIGATAAVILRDPAYIGQKLDITGAQALTYADAAQIMTMELGVPITYSKPSLWRFRKVMLQRGLPKNYVNVMVMLYLITQLGNAKTVTTTLPNVLGRPAISFEQYVHDYRAEFLPKPLS | not soluble
MSLGMAAWDRNSINPLQAYVYKTSKLPFYDENLHNLAEKIAPHCLLAHLRGVSYHDKQVVTDQNVHPFLYPVTSIALAHNGMLHNFETMRYDLLKYVKTEYRKYIKGTTDSEWIYAVFLSQLENPKGHFDASEIINAVIATLKILKTVRQQNNIVINSPVNLFLTNGDFIAATRFCLDYGWKPKDATQSTHFTYHSLWYTYGERYGFYENEYKMKGGTINSSIIIASEPLTENTTTWLEVPEYTLIFANQVDGEIKITSQDINEGHHHHHH | not soluble
MTTTIEVGMLGLGTVGSGVVERLTRSAAKIEQTQGIRLHLAAVAVNHLNAPRTVQLPIGTRLTDSLTNVVCDRKIQLVIEVMGTVATAKKAIVAALNQGKAVVTANKDLIATAGPELAALAKKQGCDLFYEASVAGGIPILRTLTDSYVTDNVQAVSGIINGTANYMLSAMATGQSYEQALATAQATGYAEADPTNDVAGIDAAYKLMILSRFAFGQELSLPQIAPTGITHLSASVCRLAAENGWQIKLLAQIQRHGSGLYCRVAPVAVPVDQPLSQINGVQNAVAVQSEAIGTSLYTGPGAGSTATANSVLNDVLVAAKHLINGYRMIRNQKRSVSLTVTRFDQLPQTYLGIGPVAPEAVKYYANEADFSVKTIADDCYQITGLSAVKRKKLRANLPLTLIPIAGTTDWKQVTENSITSPINVAI | not soluble
EHRYGHLLGQINWISLGGGIHFTEPGYALDAFCDRLRRFSEQYGVQVYLEPGEAAITNTATLEVTVLDVMRNEKNLAIVDAATEAHMLDLLIYRMSARVQPDQGPHRYVIYGNSCLAGDVFGEFSFESPLQPGSRISIQDAAGYTMVKKNWFNGVRMPAIAIRELDGEIRLVREFGYQD | not soluble
MSLNYQMITTDDALASLCEAVRAFPAIALDTEFVRTRTYYPQLGLIQLFDGEHLALIDPLGITDWSPLKAILRDPSITKFLHAGSEDLEVFLNVFGELPQPLIDTQILAAFCGRPMSWGFASMVEEYSGVTLGKSESRTDWLARPLTERQCEYAAADVWYLLPITAKLMVETEASGWLPAALDECRLMQMRRQEVVAPEDAWRDITNAWQLRTRQLACLQLLADWRLRKARERDLAVNFVVREEHLWSVARYMPGSLGELDSLGLSGSEIRFHGKTLLALVEKAQTLPEDALPQPMLNLMDMPGYRKAFKAIKSLITDVSETHKISAELLASRRQINQLLNWHWKLKPQNNLPELISGWRGELMAEALHNLLQEYPQEGGSHHHHHH | soluble
GPGSMSGGSTALKLQRLLEAEGAVIHSALQVRALPSMGGGMGVVLTERLAAGAVLARFPFRSMITARKARFNLAMAEVALELLEGHVATASTNNGSEGDNGSAGPCAATDVLHVIPFASRVWSEYEFETRVRSRRLRQLIDAKVEELAGALDSTETIVCYVLLMAALYGRLSKHARLRRSGADDGAADEEASVSGTEACACGDEAGPAPTLHYTHENAWMRTWIHALPAQYDNLLELVPVPEDSPPCLAQHGTEPECAARAPSVLSGNATTASPPPPLLARVSAYTKSSGWLRSYISLCRFQASVAREQQAIQRRHAKCCAALRCLQRLPRGVEVTEELADAGHGAAAPQNRVFASCGSSPSSSQQDCGRHDHGAACTLGQFLWAFNTLMSRGFYFPEATWALMPFVDYFNYALESNGTMYPQEDDPEDPGCFTNLLLAKTSRNGIGSVAPLMAAAAPRKQQWRTALRTARVGKAAVPLANYQTYEFQLVRPTCPPSEQVMLHYGAYSDVELLMWYGFTLRPSLLPAPQLAAAPEGRKKGTIPVLPPCLSDADGSLLHAAHGLRLALSQLASATTRVAYYRRWVAPLHRCDGAAASDADAAAACKTWLAALHCAYRLPLSPIANAEGKYPEATPGATWLDELLSAFAQTPAVAAPCTDAASEDEAAYRIDAWMRRWGSERWPGFAASAFPNITKGCAFGVLGLSPVLRAAVHSSFWTPTPERSSLSAGERLLVVRGLAWAELYVNMTAAAHADGWTTSSVPASAAAAECARTMSVDQWTLLRFLALESTDAALEEYVEYVSESEG | not soluble
MRIGHGFDVHAFGGEGPIIIGGVRIPYEKGLLAHSDGDVALHALTDALLGAAALGDIGKLFPDTDPAFKGADSRELLREAWRRIQAKGYTLGNVDVTIIAQAPKMLPHIPQMRVFIAEDLGCHMDEVNVKATTTEKLGFTGRGEGIACEAVALLMKAAK | not soluble
MGSDKIHHHHHHMRCFIGIDLGSTTTKAVVMDENLQILGRGITNSRSNYDTAAAVSKQEALIDTRLTLFRRALGGVPEVAGKVDDILSDLERNFRHVQFLEQLEDLQQTCIANIKGPRFAGREKTVIEALEGTFSRLRDSSAKQYAPGVKRKSDFFRDLAGAEFMSHGEAVCKEAGLGFDLILNVYDKSIIEVENRPPSGDMEGKFVRALEKGTMTGSSILAPVQSALAIPLEETYVVGTGYGRVRLPFPKEHIRSEILCHGLGAHMMYPETRTVLDIGGQDTKGIQVDPVGIVENFQMNDRCAAGCGRYLGYIADEMNMGLHELGPLAMKSNKQVRINSTCTVFAGAELRDRLALGEKREDILAGLHRAIILRAMSILSRAGGVKDQFTFTGGVAKNEAAVRELRKLIKENYGDVTINIDPDSIYTGALGGATFAVRAVVN | not soluble
MSLGGQEKEHLTMRAEEWHLVSGAVSMRGRRPTDEDTMVVVAAIHSHRNIRIQALFDGHGGPNVAQFAANRLQSLFARQKGYSRRDLEKICHALDEELKKNNVRRGGSTGVIMVIEKVEKPEKVIVRGRQILKDPGLTPLKEHYRKQAGPAEEITLGTSETPFRLHVANVGDSRAMLVLEDEYYEMTKDHKPEDPEEKSRILRAGASVTDSEGTSVPRIDGSLALSRSFGDFSLKQGSGSTPDAVISTPDVRQFYAGYNDLLVLFCDGVTEPVASSWPQVAAYTREIFVQTGDVVKTAVALAEQAYSAGSQDNLSAVVTRLRPDPAEEGHHHHHH | soluble
MASQSQGIQQLLQAEKRAKDKLEEAKKRKNKRLRQAKEEATADIDQYRLKREADFRRIQTSVMGSQGNLAVKIEEQTVEKIQFYSSSYNKYKEGVLKELLDLAYNIKPELHTNYKYKI | not soluble
MEYLFLRRKKTRYTSVRQKTLLYRAASRRWEKEFALRTDVRRIDALIYKGILYLMEVRQVFLDSSLSLKTLSAMLETNQTYLSNVVNRYFGCNLKELVNTYRVEYAKELLRSGRCPIEEVPVRSGFGSKSPFYVAFGKVTGMTPRQYVAHERNPLKQEENN | not soluble
SQDPSGDKVCRAGGEEDGEDGQHTSRVHDTEADPHHTEASSHRTEGSSHLTETSSRPSEAENGHDNSPHVNRAQDVGTQASPQGSLNSRVPVEARVVVEEAAIAPQGEQAPIIPGPSGDAATTAGSRLLEFSVTVPFRTAVEANIACRTLASNIQQQQVMVQQEFTVNDTILTVRWTTEDPVLFRTSINAFLDQLSLVVRNIPRPVFMAVFKQGRGRNN | soluble
MGSDKIHHHHHHMKISERQKDLLKEIGNIGAGNAATAISYMINKKVEISVPNVEIVPISKVIFIAKDPEEIVVGVKMPVTGDIEGSVLLIMGTTVVKKILEILTGRAPDNLLNLDEFSASALREIGNIMCGTYVSALADFLGFKIDTLPPQLVIDMISAIFAEASIEELEDNSEDQIVFVETLLKVEEEEEPLTSYMMMIPKPGYLVKIFERMGIQE | not soluble
